{
  "source": "paper doi:10.1101/803361",
  "binders": {"B1": {"name": "Human heat shock transcription factor 1 (Hsf1), wild type, Q00613 1-529 (natural protein)", "chain": "MDLPVGPGAAGPSNVPAFLTKLWTLVSDPDTDALICWSPSGNSFHVFDQGQFAKEVLPKYFKHNNMASFVRQLNMYGFRKVVHIEQGGLVKPERDDTEFQHPCFLRGQEQLLENIKRKVTSVSTLKSEDIKIRQDSVTKLLTDVQLMKGKQECMDSKLLAMKHENEALWREVASLRQKHAQQQKVVNKLIQFLISLVQSNRILGVKRKIPLMLNDSGSAHSMPKYSRQFSLEHVHGSGPYSAPSPAYSSSSLYAPDAVASSGPIISDITELAPASPMASPGGSIDERPLSSSPLVRVKEEPPSPPQSPRVEEASPGRPSSVDTLLSPTALIDSILRESEPAPASVTALTDARGHTDTEGRPPSPPPTSTPEKCLSVACLDKNELSDHLDAMDSNLDNLQTMLSSHGFSVDTSALLDLFSPSVTVPDMSLPDLDSSLASIQELLSPQEPPRPPEAENSSPDSGKQLVHYTAQPLFLLDPGSVDTGSNDLPVLFELGEGSYFSEGDGFAEDPTISLLTGSEPPKAKDPTVS"}},
  "key": {"[1]": {"target": "T1, Human heat shock transcription factor 1 (Hsf1), wild type (human), Q00613", "T1 chain": "B1 chain", "experiment": "native gel or EMSA", "details": "remark: other sources report otherwise"}, "[2]": {"target": "T1, Human heat shock transcription factor 1 …", "experiment": "SEC + native gel or EMSA", "details": "remark: other sources report otherwise"}},
  "data": [
    {"binder": "B1", "values": [
      {"measurement": "stoichiometry N", "setting": "[1]", "value": "> 3"},
      {"measurement": "stoichiometry N", "setting": "[2]", "value": 3}
    ]}
  ]
}
